From paper PMC6572788 (Nature Communications, 2019)

Key:
[1] = target: T1, 2PT-NBD1 (human CFTR NBD1, residues 387–646, S492P/A534P/I539T) (Homo sapiens (human), CFTR M470 allele …, S492P | A534P | I539T, biotin (in the ELISA; site not stated)); experiment: ITC; nanobody titrated into 2PT-NBD1; NanoITC, 20 °C; 20 mM Hepes pH 7.5, 150 mM NaCl, 10% glycerol, 10% ethylene glycol, 2 mM ATP, 3 mM MgCl2; one-site binding model; details: both partners purified
T1 construct: In the crystals treated with papain (6GJU) or subtilisin (6GJQ) parts of the domain were cleaved off (6GJU lacks residues 389–447); source: E. coli BL21(DE3) pLysS, purified (HisTrap, Ulp1 cleavage, Superdex 200); not shown: His6, N-terminal, cleaved; SUMO, N-terminal, cleaved

[2] = target: T2, human wt-CFTR stably overexpressed in BHK-21 cells (human, UniProt P13569); experiment: flow cytometry on cells; BHK-21 cells stably overexpressing human wt-CFTR or 2PT-F508del-CFTR, permeabilised with 0.01% β-DDM on ice; 50 µg ml^−1 nanobody; detection by anti-His6 or anti-cMyc antibody and anti-mouse-Alexa Fluor 488; details: one partner purified
T2 construct: human CFTR, wild type, full length, in BHK-21 cells; also called cellular CFTR; FL-CFTR; source: BHK-21 cells, stably overexpressing; in permeabilised cells (flow cytometry) and solubilised with 1% DMNG (pull-down)

[3] = target: T1, 2PT-NBD1 (human CFTR NBD1, residues …); experiment: cell-based or functional assay

T2 sequence (P13569 whole entry): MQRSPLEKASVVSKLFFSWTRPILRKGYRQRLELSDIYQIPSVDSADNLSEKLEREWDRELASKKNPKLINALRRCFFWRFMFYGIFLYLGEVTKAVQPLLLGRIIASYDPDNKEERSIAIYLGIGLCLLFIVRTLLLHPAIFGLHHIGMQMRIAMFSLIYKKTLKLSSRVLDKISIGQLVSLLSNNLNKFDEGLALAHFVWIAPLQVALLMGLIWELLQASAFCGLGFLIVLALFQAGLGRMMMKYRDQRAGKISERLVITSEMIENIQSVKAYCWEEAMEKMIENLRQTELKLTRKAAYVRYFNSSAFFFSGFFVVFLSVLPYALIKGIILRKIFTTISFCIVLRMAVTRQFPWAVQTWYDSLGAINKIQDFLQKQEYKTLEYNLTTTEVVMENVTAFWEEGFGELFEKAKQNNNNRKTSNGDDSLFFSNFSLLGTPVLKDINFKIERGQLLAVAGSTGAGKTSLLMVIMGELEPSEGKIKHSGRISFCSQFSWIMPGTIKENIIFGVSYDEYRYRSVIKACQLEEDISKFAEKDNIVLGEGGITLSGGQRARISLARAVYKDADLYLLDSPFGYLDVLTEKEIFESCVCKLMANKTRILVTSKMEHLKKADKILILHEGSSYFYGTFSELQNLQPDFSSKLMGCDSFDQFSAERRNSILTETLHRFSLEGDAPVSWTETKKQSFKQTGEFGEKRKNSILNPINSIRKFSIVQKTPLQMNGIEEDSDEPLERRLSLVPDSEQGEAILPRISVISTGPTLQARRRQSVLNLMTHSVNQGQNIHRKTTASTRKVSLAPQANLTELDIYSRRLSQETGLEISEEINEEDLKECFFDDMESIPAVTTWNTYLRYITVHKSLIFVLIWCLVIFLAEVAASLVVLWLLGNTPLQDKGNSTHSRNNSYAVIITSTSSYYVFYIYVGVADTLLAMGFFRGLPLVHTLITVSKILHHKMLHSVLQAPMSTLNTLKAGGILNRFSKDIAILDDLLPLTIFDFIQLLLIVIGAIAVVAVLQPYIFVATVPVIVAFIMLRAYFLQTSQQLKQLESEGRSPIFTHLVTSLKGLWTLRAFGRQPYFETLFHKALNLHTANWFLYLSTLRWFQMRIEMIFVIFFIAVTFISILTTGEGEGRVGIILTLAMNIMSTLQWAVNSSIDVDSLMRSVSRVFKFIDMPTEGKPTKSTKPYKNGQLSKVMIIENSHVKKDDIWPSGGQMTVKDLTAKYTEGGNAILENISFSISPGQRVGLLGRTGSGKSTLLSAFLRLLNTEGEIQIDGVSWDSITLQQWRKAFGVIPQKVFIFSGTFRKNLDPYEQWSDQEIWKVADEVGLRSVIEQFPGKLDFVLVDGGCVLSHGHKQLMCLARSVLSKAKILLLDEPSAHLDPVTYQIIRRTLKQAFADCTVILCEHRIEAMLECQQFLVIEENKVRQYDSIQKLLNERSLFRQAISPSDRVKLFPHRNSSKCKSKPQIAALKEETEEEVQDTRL
T1 sequence (P13569 387-646 V470M/S492P/A534P/I539T): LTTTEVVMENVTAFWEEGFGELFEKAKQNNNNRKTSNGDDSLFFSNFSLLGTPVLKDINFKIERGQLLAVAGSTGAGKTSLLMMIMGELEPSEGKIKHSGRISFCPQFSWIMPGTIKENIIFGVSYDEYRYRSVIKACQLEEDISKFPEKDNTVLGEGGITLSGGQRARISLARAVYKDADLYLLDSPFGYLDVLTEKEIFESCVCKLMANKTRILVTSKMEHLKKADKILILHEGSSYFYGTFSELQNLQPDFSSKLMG

| Binder | Kd [1] [nM] | stoichiometry N [1] | binding result [2] | increase of the apparent Tm of 2PT-NBD1 by thermal shift assay (DSF; 10 µM NBD1, 30 µM nanobody) [3] [°C] |
| --- | --- | --- | --- | --- |
| nanobody G3a (VHH, pXAP100 vector, C-terminal His6-cMyc tag; source: E. coli BL21(DE3) pLysS, periplasmic extract, purified (Ni-NTA, SEC); not shown: His6, C-terminal, kept; cMyc, C-terminal, kept) VHH: QVQLQESGGGLVQAGGSLRLSCTASGRAFSWYVMGWFRQAPGKEREFVATVSGNGSRRDYADSVKGRFTISRDNAKNTVYLQMNSLKPEDTAVYYCAASSTYYYTDPEKYDYWGQGTQVTVSS | 1100 | 1 | binds | – |
| nanobody T4 (VHH, pXAP100 vector, C-terminal His6-cMyc tag; source: E. coli BL21(DE3) pLysS, periplasmic extract, purified (Ni-NTA, SEC); not shown: His6, C-terminal, kept; cMyc, C-terminal, kept) VHH: QVQLQESGGGLVQAGGSLRLSCAASGSTFAIIAMGWYRQAPGKQRELVAVISTGDTRYADSVKGRFTISRDNAKNTVYLQMDSLRPEDTAVYYCNAAVQVRDYRNYWGQGTQVTVSS | 37.9 | 1 | binds | 12.5 |
| nanobody D12 (VHH, pXAP100 vector, C-terminal His6-cMyc tag; source: E. coli BL21(DE3) pLysS, periplasmic extract, purified (Ni-NTA, SEC); not shown: His6, C-terminal, kept; cMyc, C-terminal, kept) VHH: QVQLQESGGGLVQAGSSLRLACAATGSIRSINNMGWYRQAPGKQRGMVAIITRVGNTDYADSVKGRFTISRDNAKNTVYLQMNSLKPEDTATYYCHAEITEQSRPFYLTDDYWGQGTQVTVSS | – | – | binds | 13.8 |
| nanobody T8 (VHH, pXAP100 vector, C-terminal His6-cMyc tag; source: E. coli BL21(DE3) pLysS, periplasmic extract, purified (Ni-NTA, SEC); not shown: His6, C-terminal, kept; cMyc, C-terminal, kept) VHH: QVQLQESGGGLVQPGGSLRLSCAASGSTSSINAMGWYRQAPGKQREPVAISSSGGDTRYAEPVKGRFTISRDNAQNKVYLQMNSLKPEDTAVYYCWLNWGRTSVNSWGQGTQVTVSS | 39 | 1 | binds | 9.1 |
| nanobody T2a (VHH, pXAP100 vector, C-terminal His6-cMyc tag; source: E. coli BL21(DE3) pLysS, periplasmic extract, purified (Ni-NTA, SEC); not shown: His6, C-terminal, kept; cMyc, C-terminal, kept) VHH: QVQLQESGGGLVQAGGSLRLSCAASGSIFRIDAMGWYRQAPGKQRELVAHSTSGGSTDYADSVKGRFTISRDNAKNTVYLQMNSLKPEDTAVYYCNADVRTRWYASNNYWGQGTQVTVSS | 54 | 1 | binds | 11.2 |
| nanobody T27 (VHH, pXAP100 vector, C-terminal His6-cMyc tag; source: E. coli BL21(DE3) pLysS, periplasmic extract, purified (Ni-NTA, SEC); not shown: His6, C-terminal, kept; cMyc, C-terminal, kept) VHH: QVQLQESGGGLEQPGGSLRLSCATSGVIFGINAMGWYRQAPGKQRELVATFTSGGSTNYADFVEGRFTISRDNAKNTVYLQMNGLRPEDTAVYYCHATVVVSRYGLTYDYWGQGTQVTVSS | 25 | 1 | binds | 11.9 |
